Data published in PMC5435981.

Biological target: APOBEC3A E72A (A3A-E72A) (Homo sapiens, UniProt P31941 1-199, E72A)
Experiment: ITC

Sequence of APOBEC3A E72A (A3A-E72A) (P31941 whole entry E72A): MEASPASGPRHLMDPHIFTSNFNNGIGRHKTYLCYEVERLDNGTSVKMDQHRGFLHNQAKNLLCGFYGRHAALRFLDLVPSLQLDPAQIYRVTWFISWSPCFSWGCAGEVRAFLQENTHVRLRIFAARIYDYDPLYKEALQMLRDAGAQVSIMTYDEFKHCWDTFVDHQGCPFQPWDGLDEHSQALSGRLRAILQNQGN

AATTCAAAA (ssDNA) [A2TTCA4]
Kd: 17 ± 6 µM
